Assay results from patent US20240316143A1, “THERAPEUTIC AGENTS AND/OR PHARMACEUTICAL COMPOSITIONS FOR NEUROCOGNITIVE DISORDERS” (priority 2023, published 2024).
Square brackets hold non-standard residues; d marks the D form. Ends that are not written are not given here. pGlu = O=C1CC[C@@H](C(=O)O)N1

Columns and labels:
V1aR receptor (V1aR) = V1aR receptor (V1aR) (Homo sapiens, UniProt P37288); assay: V1aR agonist activity of AVP fragments compared with AVP; details: no method or data given
[1] = system: aged rats and AD model rats
Method: The arginine vasopressin (AVP) concentration and AQP4 concentration in the brain are assayed with aged rats and AD model rats. Between placebo groups and intranasal AVP spray groups, the expression amount of AQP4 is assessed and simultaneously amyloid 3 (AB) proteins (and/or tau proteins) are assayed. The assays of AQP4 and AB are carried out with an immunofluorescent-antibody assay. The measured concentration of each of AB (and/or tau) is compared (throughout all the brain and each site) at each time point, i.e., prior to administration, at one week after administration, at one month after administration, and at three months after administration.
In this assay, the comparisons are carried out between the above groups and intravascularly AVP received groups.

V1aR receptor (V1aR), sequence (P37288 whole entry, species assumed, the tested form may be a part): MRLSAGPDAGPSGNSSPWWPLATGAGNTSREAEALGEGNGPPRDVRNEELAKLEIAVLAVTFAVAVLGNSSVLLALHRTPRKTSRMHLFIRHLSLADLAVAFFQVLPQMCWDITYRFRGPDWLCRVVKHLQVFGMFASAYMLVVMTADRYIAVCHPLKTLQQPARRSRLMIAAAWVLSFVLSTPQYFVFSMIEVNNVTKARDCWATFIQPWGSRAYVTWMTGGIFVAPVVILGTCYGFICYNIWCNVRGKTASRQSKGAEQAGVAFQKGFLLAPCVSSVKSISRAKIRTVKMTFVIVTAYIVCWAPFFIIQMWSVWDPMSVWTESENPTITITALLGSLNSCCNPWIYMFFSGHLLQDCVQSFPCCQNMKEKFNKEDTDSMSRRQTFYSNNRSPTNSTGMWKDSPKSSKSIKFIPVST

Row | Substance | V1aR agonist activity relative to original AVP (V1aR receptor (V1aR)) | also measured
1 | AVP (4-9): AVP fragment (QNCPRG; ends and bridges not checked; UniProt P01185 23-28, looked up, fragment) | several-fold superior to original AVP | –
2 | AVP (4-8): AVP fragment (QNCPR; Arg-vasopressin; UniProt P01185 23-27, looked up, fragment) | several-fold superior to original AVP | –
3 | 8-arginine-vasopressin [AVP] | – | correlation between the concentration of AVP in the brain and the expression amount of AQP4 ([1]; aged rats and AD model rats, intranasal AVP spray vs placebo, immunofluorescent-antibody assay): There is a correlation; correlation of brain AVP concentration and AQP4 expression with the amount of AB reduction ([1]; aged rats and AD model rats, prior to, one week, one month and three months after administration): correlate with the amount of AB reduction; effectiveness of intranasal AVP administration ([1]; compared with placebo groups and intravascularly AVP received groups): effective
4 | AVP (5-9): AVP fragment (NCPRG; ends and bridges not checked; UniProt P01185 24-28, looked up, fragment) | several-fold superior to original AVP | –
5 | pGlu-Asn-Ser-Pro-Arg-Gly-NH2 acetate ([pGlu]NSPRG-NH2; also: acetate salt) [NC1900, AVP fragment] | several-fold superior to original AVP | –
6 | AVP (5-8): AVP fragment (NCPR; Arg-vasopressin; UniProt P01185 24-27, looked up, fragment) | several-fold superior to original AVP | –
